Assay [1] deals with T1, hIL-13 (human, UniProt P35225 35-146, limits assumed). Briefly: cell-based or functional assay.
Assay [2] concerns the target T1, hIL-13. Put plainly: ELISA. In general terms: ELISA stands for enzyme-linked immunosorbent assay.
Assay [3] has as its target T1, hIL-13. Put plainly: cell-based or functional assay. The source holds these as a separate data set.
The target in assay [4] is biotinylated hIL-13 (human, UniProt P35225 35-146, limits assumed, biotinylated (site not stated)). Put plainly: FACS; blockade of biotinylated hIL-13 (0.05 ug/mL) binding to HEK293 cells expressing hIL-13Rα1/hIL-4Rα. The protocol: Briefly, HEK293 previously transduced to stably express both hIL-13Rα and hIL-4Rα were cultured and harvested. Cells were seeded at 200,000 cells in 100 uL per well. Cells were washed and the supernatant was discarded. […] The cells were stained in this mixture at 4° C. for 1 hour. […] Cells were incubated at 4° C. for 1 hour, protected from light. Cells were then washed and the median fluorescence intensity (MFI) of cells in each well were recorded by FACS using a BD FACSCanto II. Subsequent data were analyzed using GraphPad Prism.
Sequence of biotinylated hIL-13 (P35225 other isoform, or with tags, fused parts or gaps limits assumed): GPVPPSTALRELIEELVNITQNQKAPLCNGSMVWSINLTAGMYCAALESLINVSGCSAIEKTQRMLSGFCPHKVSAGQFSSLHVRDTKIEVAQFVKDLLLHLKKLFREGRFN
(In general: In flow cytometry, cells or beads pass a laser one at a time.)

The target in assay [5] is T2, Recombinant Cynomolgus IL-13 Protein, His Tag (SINO BIOLOGICAL, Cat. 11057-C07H) (cynomolgus monkey, UniProt Q5I6E4 19-132 (Macaca thibetana entry)).
T2 construct: also called Cyno IL-13; cynomolgus monkey IL-13
T2 chain: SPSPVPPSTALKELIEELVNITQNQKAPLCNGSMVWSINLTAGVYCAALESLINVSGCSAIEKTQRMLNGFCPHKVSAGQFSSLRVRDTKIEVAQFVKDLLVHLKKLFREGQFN
Put plainly: SPR (Biacore 8K), mAb captured on Protein G chip, IL-13 as analyte. As for the experimental part:
(§1) Samples were injected in a multi-cycle manner over freshly captured mAb, by regenerating the capture surfaces with injection of glycine pH 1.5 for 30 sec at a flow rate of 30 μL/min. The data was processed and analyzed with Biacore Insight Evaluation Software Version 2.0.15.12933 (GE Healthcare) as follows. […] The responses from the two buffer blank injections were then subtracted from the reference subtracted data (2-1) to yield double-referenced data, which were fit to an 1:1 binding model to determine the apparent association (ka) and dissociation rate constants (kd). Their ratio provided the apparent equilibrium dissociation constant or affinity constant (KD=kd/ka).
Background: Surface plasmon resonance follows binding to a sensor surface in real time, without labels.

For assay [6], the target named is T3, Recombinant Human IL-13 Protein, His Tag (Acro Cat. IL3-H52H4) (human, UniProt P35225 35-146).
T3 construct: Bought protein; also called Hu IL-13; not shown: His Tag
T3 sequence (P35225 other isoform, or with tags, fused parts or gaps limits assumed): as the sequence (P35225 other isoform, or with tags, fused parts or gaps limits assumed) above
Described as above. As for the experimental part:
as §1

Assay [7] concerns the target T1, hIL-13. Briefly: cell-based or functional assay. This is another data set of the same source.
Assay [8] concerns the target T1, hIL-13. Briefly: cell-based or functional assay. This is another data set of the same source.

7 molecules from patent US20250129150A1 (APOGEE THERAPEUTICS, published 2025) can be followed below.

T1 sequence (P35225 other isoform, or with tags, fused parts or gaps limits assumed): as the sequence (P35225 other isoform, or with tags, fused parts or gaps limits assumed) above

B1: Construct 2 (antibody, human IgG1, kappa)
heavy: QVTLRESGPALVKPTQTLTLTCTVSGFSLSAYSVNWIRQPPGKALEWLAMIWGDGKIVYNSALKSRLTISKDTSKNQVVLTMTNMDPVDTATYYCAGDGYYPYAMDNWGQGSLVTVSSASTKGPSVFPLAPSSKSTSGGTAALGCLVKDYFPEPVTVSWNSGALTSGVHTFPAVLQSSGLYSLSSVVTVPSSSLGTQTYICNVNHKPSNTKVDKKVEPKSCDKTHTCPPCPAPELAGAPSVFLFPPKPKDTLYITREPEVTCVVVDVSHEDPEVKFNWYVDGVEVHNAKTKPREEQYNSTYRVVSVLTVLHQDWLNGKEYKCKVSNKALPAPIEKTISKAKGQPREPQVYTLPPSRDELTKNQVSLTCLVKGFYPSDIAVEWESNGQPENNYKTTPPVLDSDGSFFLYSKLTVDKSRWQQGNVFSCSVMHEALHNHYTQKSLSLSPG
light: DIVMTQSPDSLSVSLGERATINCRASKSVDSYGNSFMHWYQQKPGQPPKLLIYLASNLESGVPDRFSGSGSGTDFTLTISSLQAEDVAVYYCQQNNEDPRTFGGGTKVEIKRTVAAPSVFIFPPSDEQLKSGTASVVCLLNNFYPREAKVQWKVDNALQSGNSQESVTEQDSKDSTYSLSSTLTLSKADYEKHKVYACEVTHQGLSSPVTKSFNRGEC
As for B1, the “TARC Release IC50 (A549 cells)” value in assay [1] was found to be 0.9 nM.

B2: Construct 129 (antibody, human IgG4, kappa)
heavy: QVTLRESGPALVKPTQTLTLTCTVSGFSLSAYSVNWIRQPPGKALEWLAMIWGDGKIVYNSALKSRLTISKDTSKNQVVLTMTNMDPVDTATYYCAGDGYYPYAMDNWGQGSLVTVSSASTKGPSVFPLAPCSRSTSESTAALGCLVKDYFPEPVTVSWNSGALTSGVHTFPAVLQSSGLYSLSSVVTVPSSSLGTKTYTCNVDHKPSNTKVDKRVESKYGPPCPSCPAPEFLGGPSVFLFPPKPKDTLMISRTPEVTCVVVDVSQEDPEVQFNWYVDGVEVHNAKTKPREEQFNSTYRVVSVLTVLHQDWLNGKEYKCKVSNKGLPSSIEKTISKAKGQPREPQVYTLPPSQEEMTKNQVSLTCLVKGFYPSDIAVEWESNGQPENNYKTTPPVLDSDGSFFLYSRLTVDKSRWQEGNVFSCSVLHEALHSYTQKSLSLSLGK
light: DIVMTQSPDSLSVSLGERATINCRASKSVDSYGNSFMHWYQQKPGQPPKLLIYLASNLESGVPDRFSGSGSGTDFTLTISSLQAEDVAVYYCQQNNEDPRTFGGGTKVEIKRTVAAPSVFIFPPSDEQLKSGTASVVCLLNNFYPREAKVQWKVDNALQSGNSQESVTEQDSKDSTYSLSSTLTLSKADYEKHKVYACEVTHQGLSSPVTKSFNRGEC
notes: also called Lebrikizumab-HC; Lebrikizumab-LC
The Kd is the concentration at which binding is half-saturated. For orientation: IC50 means the concentration that inhibits the measured activity by half. Low readings indicate inhibition by little substance, high ones a need for much substance. Turning to B2, the dissociation constant Kd stood at 0.036 nM in assay [2], 0.882 nM in assay [5] and 0.239 nM in assay [6]. For the same molecule, the “TARC Inhibition IC50 (A549 cells)” value in assay [3] worked out at 0.92 nM. The molecule also registered a half-maximal inhibitory concentration (IC50) in assay [4] of 0.71 nM. The “pSTAT6 Inhibition IC50 (HT-29 cells)” value in assay [7] worked out at 0.33 nM. The “TF-1 Proliferation Inhibition IC50” value in assay [8] is 0.21 nM.

B3: Construct 130 (antibody, human IgG1, kappa, L234A L235A)
heavy: QVTLRESGPALVKPTQTLTLTCTVSGFSLSAYSVNWIRQPPGKALEWLAMIWGDGKIVYNSALKSRLTISKDTSKNQVVLTMTNMDPVDTATYYCAGDGYYPYAMDNWGQGSLVTVSSASTKGPSVFPLAPSSKSTSGGTAALGCLVKDYFPEPVTVSWNSGALTSGVHTFPAVLQSSGLYSLSSVVTVPSSSLGTQTYICNVNHKPSNTKVDKKVEPKSCDKTHTCPPCPAPEAAGGPSVFLFPPKPKDTLYITREPEVTCVVVDVSHEDPEVKFNWYVDGVEVHNAKTKPREEQYNSTYRVVSVLTVLHQDWLNGKEYKCKVSNKALPAPIEKTISKAKGQPREPQVYTLPPSRDELTKNQVSLTCLVKGFYPSDIAVEWESNGQPENNYKTTPPVLDSDGSFFLYSKLTVDKSRWQQGNVFSCSVMHEALHNHYTQKSLSLSPG
light: DIVMTQSPDSLSVSLGERATINCRASKSVDSYGNSFMHWYQQKPGQPPKLLIYLASNLESGVPDRFSGSGSGTDFTLTISSLQAEDVAVYYCQQNNEDPRTFGGGTKVEIKRTVAAPSVFIFPPSDEQLKSGTASVVCLLNNFYPREAKVQWKVDNALQSGNSQESVTEQDSKDSTYSLSSTLTLSKADYEKHKVYACEVTHQGLSSPVTKSFNRGEC
notes: as for B2
Regarding B3, the dissociation constant Kd amounted to 0.027 nM in assay [2], 0.227 nM in assay [5] and 0.112 nM in assay [6]. In addition, the “TARC Inhibition IC50 (A549 cells)” value in assay [3] turned out to be 1 nM. In addition, the IC50 in assay [4] worked out at 1.05 nM. In assay [7], the “pSTAT6 Inhibition IC50 (HT-29 cells)” value was 0.28 nM. Also, the “TF-1 Proliferation Inhibition IC50” value in assay [8] is 0.15 nM.

B4: Construct 131 (antibody, human IgG1, kappa, L234A L235A)
heavy: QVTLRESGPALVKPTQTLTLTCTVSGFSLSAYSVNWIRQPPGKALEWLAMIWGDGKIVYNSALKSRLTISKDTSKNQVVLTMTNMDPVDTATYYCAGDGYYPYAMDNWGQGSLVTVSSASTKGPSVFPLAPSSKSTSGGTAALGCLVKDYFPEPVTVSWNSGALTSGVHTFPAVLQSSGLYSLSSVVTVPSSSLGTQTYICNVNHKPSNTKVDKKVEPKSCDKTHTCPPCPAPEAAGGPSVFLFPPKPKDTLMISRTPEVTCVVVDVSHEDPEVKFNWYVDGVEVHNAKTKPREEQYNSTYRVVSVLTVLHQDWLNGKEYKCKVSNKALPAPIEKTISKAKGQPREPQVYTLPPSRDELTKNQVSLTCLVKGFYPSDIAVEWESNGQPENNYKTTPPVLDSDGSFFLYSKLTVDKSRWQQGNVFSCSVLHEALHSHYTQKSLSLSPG
light: DIVMTQSPDSLSVSLGERATINCRASKSVDSYGNSFMHWYQQKPGQPPKLLIYLASNLESGVPDRFSGSGSGTDFTLTISSLQAEDVAVYYCQQNNEDPRTFGGGTKVEIKRTVAAPSVFIFPPSDEQLKSGTASVVCLLNNFYPREAKVQWKVDNALQSGNSQESVTEQDSKDSTYSLSSTLTLSKADYEKHKVYACEVTHQGLSSPVTKSFNRGEC
notes: as for B2
Consider B4, for which the values for the dissociation constant (Kd) in assay [2], in assay [5] and in assay [6] were 0.019 nM, 0.123 nM and 0.0756 nM, respectively. In addition, in assay [3], the “TARC Inhibition IC50 (A549 cells)” value stood at 0.99 nM. Besides, the half-inhibitory concentration (IC50) in assay [4] came to 0.79 nM. The “pSTAT6 Inhibition IC50 (HT-29 cells)” value in assay [7] is 0.22 nM. The “TF-1 Proliferation Inhibition IC50” value in assay [8] was 0.13 nM.

B5: Construct 144 (antibody, human IgG1, kappa, L234A L235A)
heavy: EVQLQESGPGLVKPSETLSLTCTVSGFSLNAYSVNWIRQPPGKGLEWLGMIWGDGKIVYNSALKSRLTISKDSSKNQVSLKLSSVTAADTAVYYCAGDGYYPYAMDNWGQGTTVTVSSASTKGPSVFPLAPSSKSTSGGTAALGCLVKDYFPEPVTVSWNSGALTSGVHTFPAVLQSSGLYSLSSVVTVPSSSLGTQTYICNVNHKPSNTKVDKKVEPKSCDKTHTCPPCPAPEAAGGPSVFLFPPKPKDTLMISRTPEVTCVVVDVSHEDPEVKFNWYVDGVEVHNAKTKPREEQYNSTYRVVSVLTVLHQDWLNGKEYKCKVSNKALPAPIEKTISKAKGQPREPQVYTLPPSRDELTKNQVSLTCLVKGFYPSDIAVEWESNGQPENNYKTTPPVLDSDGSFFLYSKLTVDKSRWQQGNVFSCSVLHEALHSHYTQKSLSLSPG
light: DIQLTQSPSSLSASVGDRVTITCRASKSVDSYGNSFMHWYQQKPGKAPKLLIYLASELESGVPSRFSGSGSGTDFTLTISSLQPEDFATYYCQQNNEDPRTFGGGTKVEIKRTVAAPSVFIFPPSDEQLKSGTASVVCLLNNFYPREAKVQWKVDNALQSGNSQESVTEQDSKDSTYSLSSTLTLSKADYEKHKVYACEVTHQGLSSPVTKSFNRGEC
notes: also called HC1; LC6_m8
For the molecule B5, the Kd in assay [2] turned out to be 0.014 nM; in assay [5], 0.228 nM; in assay [6], 0.0263 nM. Besides, the “TARC Inhibition IC50 (A549 cells)” value in assay [3] amounted to 0.91 nM. For the same molecule, in assay [4], the IC50 amounted to 0.94 nM. Further, the “pSTAT6 Inhibition IC50 (HT-29 cells)” value in assay [7] was determined as 0.3 nM. For the same molecule, the “TF-1 Proliferation Inhibition IC50” value in assay [8] is 0.17 nM.

B6: Construct 15 (antibody, human IgG1, kappa)
heavy: EVQLQESGPGLVKPSETLSLTCTVSGFSLNAYSVNWIRQPPGKGLEWLGMIWGDGKIVYNSALKSRLTISKDSSKNQVSLKLSSVTAADTAVYYCAGDGYYPYAMDNWGQGTTVTVSSASTKGPSVFPLAPSSKSTSGGTAALGCLVKDYFPEPVTVSWNSGALTSGVHTFPAVLQSSGLYSLSSVVTVPSSSLGTQTYICNVNHKPSNTKVDKKVEPKSCDKTHTCPPCPAPELAGAPSVFLFPPKPKDTLYITREPEVTCVVVDVSHEDPEVKFNWYVDGVEVHNAKTKPREEQYNSTYRVVSVLTVLHQDWLNGKEYKCKVSNKALPAPIEKTISKAKGQPREPQVYTLPPSRDELTKNQVSLTCLVKGFYPSDIAVEWESNGQPENNYKTTPPVLDSDGSFFLYSKLTVDKSRWQQGNVFSCSVMHEALHNHYTQKSLSLSPG
light: DIQLTQSPSSLSASVGDRVTITCRASKSVDSYGNSFMHWYQQKPGKAPKLLIYLASNLESGVPSRFSGSGSGTDFTLTISSLQPEDFATYYCQQNNEDPRTFGGGTKVEIKRTVAAPSVFIFPPSDEQLKSGTASVVCLLNNFYPREAKVQWKVDNALQSGNSQESVTEQDSKDSTYSLSSTLTLSKADYEKHKVYACEVTHQGLSSPVTKSFNRGEC
With B6, the “TARC Release IC50 (A549 cells)” value in assay [1] stood at 0.9 nM.

B7: Construct 142 (antibody, human IgG4, kappa)
heavy: EVQLQESGPGLVKPSETLSLTCTVSGFSLNAYSVNWIRQPPGKGLEWLGMIWGDGKIVYNSALKSRLTISKDSSKNQVSLKLSSVTAADTAVYYCAGDGYYPYAMDNWGQGTTVTVSSASTKGPSVFPLAPCSRSTSESTAALGCLVKDYFPEPVTVSWNSGALTSGVHTFPAVLQSSGLYSLSSVVTVPSSSLGTKTYTCNVDHKPSNTKVDKRVESKYGPPCPSCPAPEFLGGPSVFLFPPKPKDTLYITREPEVTCVVVDVSQEDPEVQFNWYVDGVEVHNAKTKPREEQFNSTYRVVSVLTVLHQDWLNGKEYKCKVSNKGLPSSIEKTISKAKGQPREPQVYTLPPSQEEMTKNQVSLTCLVKGFYPSDIAVEWESNGQPENNYKTTPPVLDSDGSFFLYSRLTVDKSRWQEGNVFSCSVMHEALHNHYTQKSLSLSLGK
light: DIQLTQSPSSLSASVGDRVTITCRASKSVDSYGNSFMHWYQQKPGKAPKLLIYLASELESGVPSRFSGSGSGTDFTLTISSLQPEDFATYYCQQNNEDPRTFGGGTKVEIKRTVAAPSVFIFPPSDEQLKSGTASVVCLLNNFYPREAKVQWKVDNALQSGNSQESVTEQDSKDSTYSLSSTLTLSKADYEKHKVYACEVTHQGLSSPVTKSFNRGEC
notes: also called HC1; LC6_m8
Take B7: the Kd in assay [2] is 0.054 nM; in assay [5] it was 0.326 nM; in assay [6] it was 0.108 nM. Also, in assay [3], the “TARC Inhibition IC50 (A549 cells)” value is 0.92 nM. Further, the half-maximal inhibitory concentration (IC50) in assay [4] turned out to be 0.77 nM. In addition, the “pSTAT6 Inhibition IC50 (HT-29 cells)” value in assay [7] is 0.29 nM. Moreover, the “TF-1 Proliferation Inhibition IC50” value in assay [8] worked out at 0.2 nM.
